The text below walks through data of article PMC4940161, “Time-resolved studies define the nature of toxic IAPP intermediates, providing insight for anti-amyloidosis therapeutics” (eLife, 2016).

Like-named read-outs stand apart in the source and are kept apart here. Positions of bridges follow the written chain, without caps; N, C: chain ends. No end group written: not given here.

Data set [1] can be described thus: Photochemical induced cross-linking / SDS-PAGE oligomer distribution. The settings on record: 20 µM peptide, 20 mM Tris HCl pH 7.4, 25°C, at time points of h-IAPP toxicity, supernatant after 20,000 g 20 min, Tris(bipyridyl)Ru(II) cross-linking, silver stain. It counts as physicochemical. As for the experimental part:
Samples were cross-linked using Tris(bipyridyl)Ru(II), in the presence of ammonium persulfate. IAPP peptides were incubated for indicated times in 20 mM Tris HCl (pH 7.4) at 25°C. Aliquots were removed at indicated time points, centrifuged at 20,000 g for 20 min and added to the cross-linking solution. Samples contained a final concentration of 20 µM peptide, 70 µM Tris(bipyridyl)Ru(II) and 1.4 mM ammonium persulfate. Samples were illuminated with a 150 W incandescent bulb for 5 s, unless otherwise noted. The reaction was quenched by the addition of β-mercaptoethanol. The products were separated by SDS polyacrylamide gel electrophoresis using a 10–20% Tris-tricine gradient gel. Oligomer bands were visualized by silver staining (SilverXpress, Invitrogen). Quantitative analysis was carried out using GelAnalyzer software version 2010a. The relative intensity of each band was calculated by first correcting the baseline, then integrating the area under each peak.

The nature of data set [2]: Solubility assay by ultracentrifugation. In kind it is physicochemical. To be noted: 20,000 g for 20 min; UV absorbance at 215 nm. As to the method:
Samples of toxic lag phase intermediates or amyloid fibrils were ultracentrifuged for 20 min (20,000 g) and the protein in the soluble fraction (the supernatant) was measured by UV absorbance (215 nm) before and after ultracentrifugation using a DU 730 Life Science UV/Vis spectrophotometer (Beckman Coulter).

Data set [3] in a line: Amyloid formation kinetics (thioflavin-T binding, TEM). It counts as physicochemical. To be noted: 20 mM Tris HCl pH 7.4, 25°C; for Amyloid formation: thioflavin-T binding and TEM, 20 µM peptide (3xL-IAPP 40 µM), I26P-IAPP over 35+ h. As to the method:
(§1) Synthetic amyloidogenic and non-amyloidogenic IAPP peptides were dissolved in 1,1,1,3,3,3-Hexafluoro-2-propanol (HFIP) for 5–12 h, aliquoted and lyophilized to a dry powder. Amyloid formation was initiated by dissolving dry HFIP-treated peptides in 20 mM Tris HCl buffer (time-zero) at pH 7.4. Samples were incubated at 25°C, unless indicated otherwise. Aliquots were removed from the peptide solutions at designated time points over the course of amyloid formation or aggregation as schematically depicted in Figure 2A. The kinetic species populated within each of the three phases of amyloid formation were concurrently characterized by biophysical methods and biological assays assessing changes in metabolism, oxidative stress, inflammation and apoptosis using INS-1 β-cells and murine pancreatic islets.
Aliquots (100 μL) were removed from amyloid formation and aggregation assays at different time points, and added to 96-well plates containing 8 μL of a 1 mM thioflavin-T solution. Fluorescence was measured using a Beckman Coulter DTX880 plate reader (445 nm excitation and 485 nm emission). Final solution conditions contained […] and 74 µM thioflavin-T (pH 7.4).
Aliquots (4 µL) were removed from amyloid formation or aggregation assays at different time points and placed on a carbon-coated 200-mesh copper grid and negatively stained with saturated uranyl acetate. The samples were imaged with a Philips CM12 or a FEI BioTwinG2 transmission electron microscope.

In data set [4] the test system is rat INS-1 β-cells. Put plainly: Alamar Blue reduction β-cell viability assay. In kind it is cell-based. To be noted: for Toxicity to β-cells over the time course of aggregation: 20 μM peptide solutions, 14 μM final on cells, aliquots at different time points. As for the experimental part: Rat INS-1 β-cells (832/13) were generously provided by Professor Newgard (Duke University). β-cells were grown in RPMI 1640 supplemented with 10% fetal bovine serum (FBS), 11 mM glucose, 10 mM Hepes, 2 mM L-glutamine, 1 mM sodium pyruvate, 50 µM β-mercaptoethanol, 100 U/ml penicillin, and 100 U/ml streptomycin.
as §1
Rat INS-1 β-cells were seeded at a density of 30,000 cells per well in 96-well plates 12–16 h prior to start of experiments. Hand purified islets were seeded at a density of 25–30 islets per well in 96-well plates. Amyloid formation and aggregation assays were initiated by dissolving IAPP peptides (15 μM to 80 μM stock solutions for dose-response experiments) in 20 mM Tris HCl (pH 7.4), unless stated otherwise. Peptide solutions were incubated at 25°C, or as indicated. Aliquots were removed from amyloid formation and aggregation assays at different time points and applied exogenously to rat INS-1 β-cells (5 h incubation) or murine pancreatic islets (10 h incubation). β-cells and islets were photographed by light microscopy immediately before and after toxicity experiments to assess changes in morphology. The final range of peptide concentrations examined in β-cell and islet toxicity assays after diluting IAPP peptide solutions into cell or islet culture was 10.5 μM to 56 μM in dose-response studies, unless indicated otherwise. Cell viability was measured by Alamar Blue reduction assays, which detect changes in metabolic function, and by morphological changes detected by light microscopy. Alamar Blue was diluted ten-fold in culture medium and incubated on β-cells or islets for 5 h at 37°C. Fluorescence (530 nm excitation and 590 nm emission) was measured with a Beckman Coulter DTX880 plate reader. Values were calculated relative to control β-cells or islets treated with buffer alone. Toxicity was defined as <80% viability. Light microscopy images were captured using an Olympus BX-61 light microscope.

Data set [5] has as its system rat INS-1 β-cells. The settings on record: ref Wang et al., 2014b; cited from earlier work. An excerpt: (§2) IAPP is expressed by all mammals examined to date; the amino acid sequences are ~80% conserved between species, however not all IAPP sequences are toxic or form amyloid in vivo (Figure 5—figure supplement 1) ([Betsholtz et al., 1989]; [Cao et al., 2013b]; [Westermark et al., 1990]).

The conditions of data set [6]: ref Wang et al., 2014b; cited from earlier work.
Text: as §2

Setting [7] is: 1:1 addition to h-IAPP (40 µM each).
[8] abbreviates: aliquots from peptide in 20 mM Tris HCl pH 7.4, 25°C, 14 μM (h-IAPP) or 28 μM (3xL-IAPP) final, 5 h on cells, toxicity defined as <80% viability.

Regarding “r-IAPP: non-toxic, non-amyloidogenic rat IAPP, negative control [reference compound]”, the “Distribution of oligomers in solution” value in data set [1] is given as “monomers to hexamers”. For the same substance, the “Solubility under ultracentrifugation conditions (control)” value in data set [2] is reported as “soluble”. For the same substance, the Amyloid formation entry in data set [3] is reported as “does not form amyloid fibrils”. Besides, the “Toxicity to β-cells over the time course of aggregation” value with rat INS-1 β-cells [4] (Alamar Blue, 5 h on cells) is given as “not toxic at any time point”. Besides, the “Toxicity to β-cells, dose-response” value in the data set on rat INS-1 β-cells [4] (28, 56 and 84 µM peptide prepared directly in cell culture medium, 24, 48 or 96 h on cells, Alamar Blue) is “No detectable toxicity”. The “Toxicity over extended time course” value with rat INS-1 β-cells [4] (28 day time course, data not shown) is reported as “not toxic over a 28 day time course”.
For the substance human islet amyloid polypeptide, the upper limit of β-sheet content was under 15%.
As to “I26P-IAPP: I26P point mutant of h-IAPP; inhibitor of h-IAPP amyloid formation (KCNTATCATQRLANFLVHSSNNFGAPLSSTNVGSNTY-NH2; disulfide 2-7; ends not checked; UniProt P10997 34-70, looked up, variant I26P)”, in data set [1], the “Distribution of oligomers in solution” value was “low order oligomers”. In data set [3] (setting [7]), the “Effect on T50 of h-IAPP amyloid formation (time to 50% of total thioflavin-T signal change)” value is listed as “increased by a factor of two” and the “Effect on length of h-IAPP lag phase (time to 10% of total thioflavin-T signal change)” value is reported as “increased by a factor of two”. Further, the Amyloid formation result in data set [3] was “non-amyloidogenic”. Further, the “Toxicity to β-cells over the time course of aggregation” value in the data set on rat INS-1 β-cells [4] (Alamar Blue, 5 h on cells) is listed as “not toxic at any time point”. Moreover, the “Effect on duration of h-IAPP cytotoxicity” value in the data set on rat INS-1 β-cells [4] (1:1 addition to h-IAPP, 80 µM total peptide, 56 µM final on cells, time-resolved Alamar Blue) is recorded as “increases the duration of toxicity proportionally”.
For “3xL-IAPP: triple mutant of h-IAPP that lacks aromatic residues (KCNTATCATQRLANLLVHSSNNLGAILSSTNVGSNTL; ends and bridges not checked; cysteine pairing not given here; UniProt P10997 34-70, looked up, variant F15L F23L Y37L)”, the Amyloid formation result in data set [3] is recorded as “form amyloid more slowly than the human peptide”. In addition, the “β-cell viability at time point of maximum toxicity” value in the data set with rat INS-1 β-cells [4] (40 μM peptide solution (28 μM final on cells), Alamar Blue, 5 h on INS-1 β-cells, relative to buffer treated cells, mean, three replicate experiments) amounted to 67%. For the same substance, in the data set on rat INS-1 β-cells [4] (setting [8]), the “Toxicity of amyloid fibrils (saturation phase) to β-cells” value is reported as “not toxic” and the “Toxicity of lag phase intermediates to β-cells” value is “clearly still toxic”.
Take “TM-IAPP: H18R, G24P, I26P triple mutant of h-IAPP (KCNTATCATQRLANFLVRSSNNFPAPLSSTNVGSNTY-NH2; disulfide 2-7; ends not checked; UniProt P10997 34-70, looked up, variant H18R G24P I26P)”: the “Distribution of oligomers in solution” value in data set [1] is listed as “oligomerizes”. Besides, the Toxicity result in the data set on rat INS-1 β-cells [5] is recorded as “non-toxic”. Moreover, in data set [6], the Amyloid formation result is “non-amyloidogenic”.
